From publication PMC5384650

Substrate: NC[C@H](N)C(=O)O
Test: coupled NADH oxidation assay
Format: biochemical, Salmonella enterica
Conditions: ATP, Mg2+ used in place of beta-alanine

B1: pantothenate synthetase (PanC) (Salmonella enterica subsp. enterica serovar Typhimurium str. LT2) (protein)
chain: MLIIETLPLLRQHIRRLRQEGKRVALVPTMGNLHDGHMKLVDEAKARADVVIVSIFVNPMQFDRPDDLVRYPRTLQEDCEKLNKRKVDYVFAPAVEEIYPHGLEGQTYVDVPGLSTMLEGASRPGHFRGVSTIVSKLFNLIQPDIACFGEKDFQQLALIRKMVADMSYDIEIVGVPIIRAKDGLALSSRNAYLTAEQRKIAPGLYNVMNSIAEKLIAGNRELQEIIAIAEQELNEKGFRADDIQIRDADTLLELTETSKRAVILAAAWLGQARLIDNQSVTLAQ
- Km: 8.1 mM
